For assay [1], the target named is T1, MAGE-A1 and a second family member (printed 'MRGE-A1/R4') peptide on HLA-DPB1*04:01 (human).
T1 peptide: QDLVQEKYLEY
Kind of assay: cytokine release.

The target in assay [2] is T2, MAGE-A3 peptide on HLA-DPB1*04:01 (human).
T2 peptide: KKLLTQHFVQENY
Kind of assay: cytokine release.

B1: 6F9 TCR (TCR, V domains shown)
Valpha: AQTVTQSQPEMSVQEAETVTLSCTYDTSESDYYLFWYKQPPSRQMILVIRQEAYKQQNATENRFSVNFQKAAKSFSLKISDSQLGDAAMYFCALRSSGTYKYIFGTGTRLKVLA
Vbeta: GAGVSQSPSNKVTEKGKDVELRCDPISGHTALYWYRQSLGQGLEFLIYFQGNSAPDKSGLPSDRFSAERTGGSVSTLTIQRTQQEDSAVYLCASIRTGPFFSGNTIYFGEGSWLTVV
Turning to B1, the binding result in assay [1] and in assay [2] was “no recognition” in each case.

The values are drawn from patent EP3636665A1 (dated 2020).
